The values that follow come from publication PMC5973699.

For test [1], the target named is MabSelect SuRe resin ligand (engineered Protein A; alkaline resistant protein A domain). In words: capture on affinity resin.
The target of test [2] is GammaBind Plus resin ligand (affinity improved protein G). In words: capture on affinity resin.

In test [1], mouse IgG1 (antibody) showed a binding capacity (µg mouse IgG1 per µL resin) of 25.

Consider rat IgG2a (antibody), for which, in test [2], the Binding capacity (Batch Mode) (µg rat IgG2a /µL resin) was determined as 15.

On to human IgG1 (pertuzumab) (antibody), for which, in test [1], the binding capacity, tip column, 2 pipetting cycles is 37 µg; the binding capacity, tip column, 4 pipetting cycles was determined as 46 µg; the binding capacity, tip column, 6 pipetting cycles (µg human IgG1 per µL of resin) turned out to be 52; the binding capacity, tip column, 8 pipetting cycles (µg human IgG1 per µL of resin) was 54. Further, in test [1], the binding capacity, tip column, 9 pipetting cycles (µg human IgG1 per µL of resin) came to 55 and the static binding capacity (batch mode) (µg human IgG1 per µL of resin) was found to be 62.
